The results in this text go back to patent US20180207294A1, “NON-ALCOHOLIC FATTY LIVER REGULATING FACTOR 14-3-3 PROTEIN” (Korea University Research and Business Foundation, priority 2015, published 2018).

What all share (format): binding
In one experiment the target is T1, PPARγ2 S273A mutant (Homo sapiens, UniProt P37231, S273A).
T1 construct: expressed in transfected cells; host or cells: HEK-293T
T1 sequence (P37231 1-505 S273A): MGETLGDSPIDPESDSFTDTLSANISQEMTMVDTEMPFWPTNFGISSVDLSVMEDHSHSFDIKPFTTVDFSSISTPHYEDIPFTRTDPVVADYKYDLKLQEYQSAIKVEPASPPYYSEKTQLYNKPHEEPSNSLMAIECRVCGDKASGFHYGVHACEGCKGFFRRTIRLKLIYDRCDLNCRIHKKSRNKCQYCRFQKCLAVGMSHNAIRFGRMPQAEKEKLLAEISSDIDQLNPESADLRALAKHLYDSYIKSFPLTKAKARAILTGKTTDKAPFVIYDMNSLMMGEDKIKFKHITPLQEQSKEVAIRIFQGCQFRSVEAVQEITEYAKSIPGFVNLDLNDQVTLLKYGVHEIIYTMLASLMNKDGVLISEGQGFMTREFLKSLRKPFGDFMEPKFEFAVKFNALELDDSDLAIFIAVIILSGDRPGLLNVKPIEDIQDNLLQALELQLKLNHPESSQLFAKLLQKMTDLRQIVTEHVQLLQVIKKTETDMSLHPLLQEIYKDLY
Nature of the experiment: GST-pull down assay with PPARγ2 S112A and S273A mutants (HEK-293T). The note with it: FIG. 4A, 4B. How it is done:
14-3-3 proteins are known to bind to phosphorylated residues of a target protein. Phosphorylated residues associated with the activity of PPARγ2 are known to be serine 112 and serine 273. Thus, PPARγ2 mutants (PPARγ2 S112A and S273A) with non-phosphorylated serine 112 and serine 273 residues were produced and binding thereof with 14-3-3 proteins was verified through GST-pull down assay.
HEK-293T cells were seeded in a 100 mm plate at a density of 2×10^6 cells per each well, and then transfected with Flag-PPARγ2 (WT) DNA (4 μg), Flag-PPARγ2 (S112A) DNA (4 μg), Flag-PPARγ2(S273A) DNA (4 μg), and mGST-14-3-3β (4 μg) or mGST-14-3-3γ (4 μg) using an E-fection plus reagent (Lugen). As for Flag-PPARγ2 (S112A) DNA and Flag-PPARγ2 (S273A) DNA, DNA fragments amplified through polymerase chain reaction (PCR) were cloned into a Flag-tagged vector. A ratio of DNA to the E-fection plus reagent was 1:2, and this method was performed according to a manufacturer's manual. The corresponding cells were washed with ice-cold PBS and lysed using 500 μl/well of a lysis buffer (150 mM NaCl, 1 mM EDTA, 1% Nonidet P-40, 5% glycerol, 25 mM tris-HCl, pH 7.5, protease inhibitor added), and the lysed cells were centrifuged at 10,000×g and 4° C. for 10 minutes to extract proteins. […]

Experiment [1] deals with T2, PPARγ2 deletion mutants (Homo sapiens, UniProt P37231).
T2 construct: expressed in transfected cells; host or cells: HEK-293T
T2 sequence (P37231 1-310): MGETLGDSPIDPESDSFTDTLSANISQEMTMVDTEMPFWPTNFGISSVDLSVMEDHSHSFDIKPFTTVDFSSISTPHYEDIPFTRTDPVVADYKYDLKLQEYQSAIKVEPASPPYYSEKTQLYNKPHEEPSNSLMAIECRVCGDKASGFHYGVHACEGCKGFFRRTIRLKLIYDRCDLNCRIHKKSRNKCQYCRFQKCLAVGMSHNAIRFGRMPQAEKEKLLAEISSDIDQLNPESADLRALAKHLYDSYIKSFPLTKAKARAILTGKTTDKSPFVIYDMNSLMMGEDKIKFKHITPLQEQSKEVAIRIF
The experiment can be described thus: GST-pull down assay with PPARγ2 deletion mutants (HEK-293T). The note with it: FIG. 3B, 3C. How it is done:
(§1) The PPARγ2 protein has been reported to consist of an activation function 1 (AF-1, amino acids 1-138) domain, a DNA-binding domain (DBD, amino acids 139-203), a hinge region (amino acids 204-310), and an activation function 2 (AF-2, amino acids 311-505) domain (see FIG. 3A). Thus, GST-pull down assay was conducted to verify which domain part of PPARγ2 was bound to 14-3-3β and 14-3-3γ.
(§2) HEK-293T cells were seeded in a 100 mm plate at a density of 2×10^6 cells per each well, and then transfected with Flag-PPARγ2 (1-505) DNA (4 μg), Flag-PPARγ2 (1-310) DNA (4 μg), Flag-PPARγ2 (139-505) DNA (4 μg), and mGST-14-3-3β (4 μg) or mGST-14-3-3γ (4 μg) using an E-fection plus reagent (Lugen). For Flag-PPARγ2 (1-310) DNA and Flag-PPARγ2 (139-505) DNA, DNA fragments amplified through polymerase chain reaction (PCR) were cloned into a pCMV-3Tag-1 vector using restriction enzymes Xhol and Apal. A ratio of DNA to the E-fection plus reagent was 1:2, and this method was performed according to a manufacturer's manual. The corresponding cells were washed with ice-cold PBS and lysed using 500 μl/well of a lysis buffer (150 mM NaCl, 1 mM EDTA, 1% Nonidet P-40, 5% glycerol, 25 mM tris-HCl, pH 7.5, protease inhibitor added), and the lysed cells were centrifuged at 10,000×g and 4° C. for 10 minutes to extract proteins. Thereafter, 1,000 μg of the proteins was reacted with 20 μl of glutathione Sepharose 4B beads (GE Healthcare, Buckinghamshire, UK) for 6 hours, and then washing of the beads with 1 ml of ice-cold PBS was repeated 5 times, and the beads were boiled at 100° C. for 10 minutes, followed by 10% SDS-PAGE gel separation and western blotting. A ratio of GST antibodies (Santa Cruz) to Flag antibodies (Santa Cruz) was 1:3000. The detection of each protein was performed using West Pico ECL (Thermo scientific, Rockford, Ill.) and identified in a darkroom.

The target of experiment [2] is T3, PPARγ2 deletion mutants (Homo sapiens, UniProt P37231).
T3 construct: expressed in transfected cells; host or cells: HEK-293T
T3 sequence (P37231 139-505): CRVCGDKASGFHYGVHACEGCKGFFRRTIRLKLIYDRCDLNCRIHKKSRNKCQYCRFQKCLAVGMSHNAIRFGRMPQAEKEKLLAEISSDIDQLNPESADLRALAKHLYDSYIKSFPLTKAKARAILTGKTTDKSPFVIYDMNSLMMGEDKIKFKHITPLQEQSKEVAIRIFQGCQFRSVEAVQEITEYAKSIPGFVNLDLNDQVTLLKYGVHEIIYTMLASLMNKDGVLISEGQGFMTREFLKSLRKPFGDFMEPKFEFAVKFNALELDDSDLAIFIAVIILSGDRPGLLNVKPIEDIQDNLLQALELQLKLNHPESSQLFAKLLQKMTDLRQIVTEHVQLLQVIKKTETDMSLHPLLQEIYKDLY
The experiment is described as above. The note with it: FIG. 3B, 3C. How it is done: as §1, §2
The source holds these as a separate data set.

With “14-3-3β: 14-3-3 isoform protein, overexpressed by DNA transfection; regulating factor that increases transcriptional activity of PPARγ2”, the “binding with PPARγ2 S273A mutant” value in the experiment with PPARγ2 S273A mutant is “suppressed”. Further, in the experiment with PPARγ2 deletion mutants [1], the “binding to PPARγ2 deletion mutant (1-310)” value is reported as “bound”. The “binding to PPARγ2 deletion mutant (139-505)” value with PPARγ2 deletion mutants [2] was “bound”.

On to “14-3-3γ: 14-3-3 isoform protein, overexpressed by DNA transfection; regulating factor that decreases transcriptional activity of PPARγ2”, for which, in the experiment with PPARγ2 S273A mutant, the “binding with PPARγ2 S273A mutant” value is “suppressed”. For the same substance, the “binding to PPARγ2 deletion mutant (1-310)” value in the experiment with PPARγ2 deletion mutants [1] was “bound”. Besides, the “binding to PPARγ2 deletion mutant (139-505)” value in the experiment with PPARγ2 deletion mutants [2] is “bound”.
